Data: article PMC11535040, “Requirement of Nek2a and cyclin A2 for Wapl-dependent removal of cohesin from prophase chromatin” (The EMBO Journal, 2024)

Target: T1, Flag-tagged Pds5b (wild type) phosphorylated by Nek2a and Cdk1/2-cyclin A2 (human, UniProt Q9NTI5 1-1447, phosphoserine at 1161 and 1166 (by Cdk1/2-cyclin A2) and at 1177, 1182 and 1209 (by Nek2a))
T1 construct: Pds5b, human; insert by PCR on human cDNA; How fully each site was phosphorylated in these preparations was not measured; also called Pds5b-WT treated with these two kinases; Pds5b co-expressed with Nek2aΔMR and Δ86-cyclin A2
T1 sequence (looked up): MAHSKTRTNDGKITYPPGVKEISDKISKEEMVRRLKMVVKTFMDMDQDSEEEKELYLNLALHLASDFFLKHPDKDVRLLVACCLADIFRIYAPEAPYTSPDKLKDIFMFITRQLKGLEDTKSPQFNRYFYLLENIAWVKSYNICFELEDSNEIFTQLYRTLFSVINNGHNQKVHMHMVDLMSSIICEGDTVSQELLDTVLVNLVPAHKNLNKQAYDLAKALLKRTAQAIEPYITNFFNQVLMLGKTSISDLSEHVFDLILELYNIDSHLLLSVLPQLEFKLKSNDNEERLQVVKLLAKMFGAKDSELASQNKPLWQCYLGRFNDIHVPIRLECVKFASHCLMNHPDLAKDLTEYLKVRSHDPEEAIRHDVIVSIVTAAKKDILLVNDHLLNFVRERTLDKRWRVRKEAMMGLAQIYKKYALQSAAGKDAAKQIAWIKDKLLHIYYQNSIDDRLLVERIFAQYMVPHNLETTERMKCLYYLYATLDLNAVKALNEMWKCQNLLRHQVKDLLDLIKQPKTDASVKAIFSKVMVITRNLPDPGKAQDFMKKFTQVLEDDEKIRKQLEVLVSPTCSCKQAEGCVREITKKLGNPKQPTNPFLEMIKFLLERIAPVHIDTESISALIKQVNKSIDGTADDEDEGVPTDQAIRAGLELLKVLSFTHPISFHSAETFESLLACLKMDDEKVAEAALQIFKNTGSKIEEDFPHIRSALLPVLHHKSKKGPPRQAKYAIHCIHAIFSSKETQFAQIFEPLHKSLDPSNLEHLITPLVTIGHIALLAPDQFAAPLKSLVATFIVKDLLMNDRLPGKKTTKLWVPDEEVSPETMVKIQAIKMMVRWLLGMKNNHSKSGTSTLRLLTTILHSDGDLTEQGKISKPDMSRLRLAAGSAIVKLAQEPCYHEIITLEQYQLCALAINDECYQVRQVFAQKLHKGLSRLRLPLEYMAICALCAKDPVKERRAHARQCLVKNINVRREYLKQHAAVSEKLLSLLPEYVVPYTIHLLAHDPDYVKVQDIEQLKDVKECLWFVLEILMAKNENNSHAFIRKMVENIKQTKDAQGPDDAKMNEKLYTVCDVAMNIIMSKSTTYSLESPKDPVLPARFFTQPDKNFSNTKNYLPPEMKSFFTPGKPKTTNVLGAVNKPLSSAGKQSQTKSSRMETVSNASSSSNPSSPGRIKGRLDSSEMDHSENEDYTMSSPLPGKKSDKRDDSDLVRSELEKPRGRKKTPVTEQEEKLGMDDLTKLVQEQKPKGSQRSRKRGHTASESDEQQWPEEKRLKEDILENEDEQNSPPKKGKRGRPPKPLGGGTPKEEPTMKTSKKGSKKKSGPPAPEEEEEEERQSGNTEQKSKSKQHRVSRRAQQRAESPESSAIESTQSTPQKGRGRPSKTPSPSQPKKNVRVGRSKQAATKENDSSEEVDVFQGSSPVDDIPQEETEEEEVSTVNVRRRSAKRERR
Assay: pull-down; Flag-Pds5b variants affinity-purified from Nek2a- and cyclin A2-free prometaphase cells, incubated on the beads with recombinant Nek2a and/or Cdk1/2-cyclin A2 and ATP, washed, then incubated with recombinant Wapl (2 µl) and sororin (0.3 µg) in 15 µl cleavage buffer without ATP, 20 min at 37 °C; immunoblotting
Conditions: both partners purified

- binding result: binds
B1: recombinant human Wapl (natural protein, UniProt Q7Z5K2 1-1190, looked up)
chain: MTSRFGKTYSRKGGNGSSKFDEVFSNKRTTLSTKWGETTFMAKLGQKRPNFKPDIQEIPKKPKVEEESTGDPFGFDSDDESLPVSSKNLAQVKCSSYSESSEAAQLEEVTSVLEANSKISHVVVEDTVVSDKCFPLEDTLLGKEKSTNRIVEDDASISSCNKLITSDKVENFHEEHEKNSHHIHKNADDSTKKPNAETTVASEIKETNDTWNSQFGKRPESPSEISPIKGSVRTGLFEWDNDFEDIRSEDCILSLDSDPLLEMKDDDFKNRLENLNEAIEEDIVQSVLRPTNCRTYCRANKTKSSQGASNFDKLMDGTSQALAKANSESSKDGLNQAKKGGVSCGTSFRGTVGRTRDYTVLHPSCLSVCNVTIQDTMERSMDEFTASTPADLGEAGRLRKKADIATSKTTTRFRPSNTKSKKDVKLEFFGFEDHETGGDEGGSGSSNYKIKYFGFDDLSESEDDEDDDCQVERKTSKKRTKTAPSPSLQPPPESNDNSQDSQSGTNNAENLDFTEDLPGVPESVKKPINKQGDKSKENTRKIFSGPKRSPTKAVYNARHWNHPDSEELPGPPVVKPQSVTVRLSSKEPNQKDDGVFKAPAPPSKVIKTVTIPTQPYQDIVTALKCRREDKELYTVVQHVKHFNDVVEFGENQEFTDDIEYLLSGLKSTQPLNTRCLSVISLATKCAMPSFRMHLRAHGMVAMVFKTLDDSQHHQNLSLCTAALMYILSRDRLNMDLDRASLDLMIRLLELEQDASSAKLLNEKDMNKIKEKIRRLCETVHNKHLDLENITTGHLAMETLLSLTSKRAGDWFKEELRLLGGLDHIVDKVKECVDHLSRDEDEEKLVASLWGAERCLRVLESVTVHNPENQSYLIAYKDSQLIVSSAKALQHCEELIQQYNRAEDSICLADSKPLPHQNVTNHVGKAVEDCMRAIIGVLLNLTNDNEWGSTKTGEQDGLIGTALNCVLQVPKYLPQEQRFDIRVLGLGLLINLVEYSARNRHCLVNMETSCSFDSSICSGEGDDSLRIGGQVHAVQALVQLFLERERAAQLAESKTDELIKDAPTTQHDKSGEWQETSGEIQWVSTEKTDGTEEKHKKEEEDEELDLNKALQHAGKHMEDCIVASYTALLLGCLCQESPINVTTVREYLPEGDFSIMTEMLKKFLSFMNLTCAVGTTGQKSISRVIEYLEHC
notes: Wapl, human; insert by PCR on human cDNA; Isolated from mitotically arrested cells; also called GFP-SUMOstar-Wapl; source: Hek293T, transiently transfected, taxol-arrested; not shown: GFP, N-terminal, cleaved; SUMOstar, N-terminal, cleaved
